Experimental findings from paper PMC4453921, “Crystal structure of caspase recruiting domain (CARD) of apoptosis repressor with CARD (ARC) and its implication in inhibition of apoptosis” (Scientific Reports, 2015) are described below.

The series concerns the molecule itself. The experiment in a line: SEC-MALS; Superdex 200 HR 10/30 equilibrated in appropriate buffer, coupled to three-angle light scattering and refractive index detectors, 0.2 ml/min.

B1: ARC CARD domain (amino acids 1-95), wild type (domain or fragment, human, UniProt O60936 1-95, looked up)
chain: MGNAQERPSETIDRERKRLVETLQADSGLLLDALLARGVLTGPEYEALDALPDAERRVRRLLLLVQGKGEAACQELLRCAQRTAGAPDPAWDWQH
notes: Apoptosis repressor with caspase recruiting domain (ARC), human (208 amino acids), CARD domain, amino acids 1-95; Expression and purification are said to be described in detail elsewhere; A selenomethionine-substituted form was made for SAD phasing; also called CARD domain of ARC; caspase recruiting domain of apoptosis repressor with CARD; not shown: His-tag, C-terminal, kept
For the protein B1, the “stoichiometry N” value worked out at 2.
